Reference: patent US6623738 (University of California, dated 2003)
Changes are numbered by the printed parent chain. Where “and” joins values, the source holds several entries; their conditions need not be identical. Identical values can stand only once.

B1: AP fusion protein comprising only the C domain of SemaIII (AP-C) (ligand)
chain: IIPVEEENPDFWNREAAEALGAAKKLQPAQTAAKNLIIFLGDGMGVSTVTAARILKGQKKDKLGPEIPLAMDRFPYVALSKTYNVDKHVPDSGATATAYLCGVKGNFQTIGLSAAARFNQCNTTRGNEVISVMNRAKKAGKSVGVVTTTRVQHASPAGTYAHTVNRNWYSDADVPASARQEGCQDIATQLISNMDIDVILGGGRKYMFRMGTPDPEYPDDYSQGGTRLDGKNLVQEWLAKRQGARYVWNRTELMQASLDPSVTHLMGLFEPGDMKYEIHRDSTLDPSLMEMTEAALRLLSRNPRGFFLFVEGGRIDHGHHESRAYRALTETIMFDDAIERAGQLTSEEDTLSLVTADHSHVFSFGGYPLRGSSIFGLAPGKARDRKAYTVLLYGNGPGYVLKDGARPDVTESESGSPEYRQQSAVPLDEETHAGEDVAVFARGPQAHLVHGVQEQTFIAHVMAFAACLEPYTACDLAPPAGTTDAAHPGGFIQTLLKVTLEVIDTEHLEELLHKDDDGDGSKTKEMSNSMTPSQKVWYRDFMQLINHPNLNTMDEFCEQVWKRDRKQRRQRPGHTPGNSNKWKHLQENKK
B2: rat semaphorin receptor 1 (rSR1), full length, expressed on cells (receptor)
chain: FRSDKCGGTIKIENPGYLTSPGYPHSYHPSEKCEWLIQAPEPYQRIMINFNPHFDLEDRDCKYDYVEVIDGENEGGRLWGKFCGKIAPSPVVSSGPFLFIKFVSDYETHGAGFSIRYEIFKRGPECSQNYTAPTGVIKSPGFPEKYPNSLECTYIIFAPKMSEIILEFESFDLEQDSNPPGGMFCRYDRLEIWDGFPEVGPHIGRYCGQKTPGRIRSSSGILSMVFYTDSAIAKEGFSANYSVLQSSISEDFKCMEALGMESGEIHSDQITASSQYGTNWSVERSRLNYPENGWTPGEDSYREWIQVDLGLLRFVTAVGTQGAISKETKKKYYVKTYRVDISSNGEDWITLKEGNKAIIFQGNTNPTDVVFGVFPKPLITRFVRIKPASWETGISMRFEVYGCKITDYPCSGMLGMVSGLISDSQITASNQGDRNWMPENIRLVTSRTGWALPPSPHPYINEWLQVDLGDEKIVRGVIIQGGKHRENKVFMRKFKIAYSNNGSDWKMIMDDSKRKAKSFEGNNNYDTPELRAFTPLSTRFIRIYPERATHSGLGLRMELLGCEVEVPTAGPTTPNGNPVDECDDDQANCHSGTGDDFQLTGGTTVLATEKPTIIDSTIQSEFPTYGFNCEFGWGSHKTFCHWEHDSHAQLRWRVLTSKTGPIQDHTGDGNFIYSQADENQKGKVARLVSPVVYSQSSAHCMTFWYHMSGSHVGTLRVKLHYQKPEEYDQLVWMVVGHQGDHWKEGRVLLHKSLKLYQVIFEGEIGKGNLGGIAVDDISINNHIPQEDCAKPTDLDKKNTEIKIDETGSTPGYEEGKGDKNISRKPGNVLKTLDPILITIIAMSALGVLLGAVCGVVLYCACWHNGMSERNLSALENYNFELVDGVKLKKDKLNPHSNYSEA
notes: also called rat SR1; p28
B3: neuropilin-1 transiently expressed in COS-7 cells (receptor)
chain: B2 chain with M183V, H895Q
notes: also called npn-1; SR1
B4: AP fusion with the ectodomain of Sema VIa (ligand, UniProt O35464 19-649, looked up)
chain: GFPEDSEPISISHGNYTKQYPVFVGHKPGRNTTQRHRLDIQMIMIMNRTLYVAARDHIYTVDIDTSHTEEIYCSKKLTWKSRQADVDTCRMKGKHKDECHNFIKVLLKKNDDTLFVCGTNAFNPSCRNYRVDTLETFGDEFSGMARCPYDAKHANIALFADGKLYSATVTDFLAIDAVIYRSLGDSPTLRTVKHDSKWLKEPYFVQAVDYGDYIYFFFREIAVEYNTMGKVVFPRVAQVCKNDMGGSQRVLEKQWTSFLKARLNCSVPGDSHFYFNILQAVTDVIRINGRDVVLATFSTPYNSIPGSAVCAYDMLDIANVFTGRFKEQKSPDSTWTPVPDERVPKPRPGCCAGSSSLEKYATSNEFPDDTLNFIKTHPLMDEAVPSIINRPWFLRTMVRYRLTKIAVDNAAGPYQNHTVVFLGSEKGIILKFLARIGSSGFLNGSLFLEEMNVYNPEKCSYDGVEDKRIMGMQLDRASGSLYVAFSTCVIKVPLGRCERHGKCKKTCIASRDPYCGWVRESGSCAHLSPLSRLTFEQDIERGNTDGLGDCHNSFVALNGHASSLYPSTTTSDSASRDGYESRGGMLDWNDLLEAPGSTDPLGAVSSHNHQDKKGVIRESYLKSNDQLVPVT
notes: extracellular domain; also called Sema VIa ectodomain; not shown: alkaline phosphatase (AP) reporter

Experiments:
[1] = molecular target: B2; assay: equilibrium binding of AP fusion to 293-EBNA cells stably expressing rat SR1, Hill fit
[2] = molecular target: T1, SemaIII-AP fusion protein (full-length Sema III fused at its carboxy terminus to alkaline phosphatase); assay: as above
[3] = molecular target: AP fusion protein comprising just the semaphorin domain of SemaIII (AP-S); assay: as above
[4] = molecular target: T1, SemaIII-AP fusion protein (full-length …); assay: equilibrium binding of AP fusion to neuropilin-1-expressing cells, Hill fit
[5] = molecular target: T2, mouse neuropilin-2(a0), myc-tagged, expressed in COS-7 cells (mouse, UniProt O35375 21-931); assay: AP fusion binding to transfected COS cells
T2 construct: also called SR2(a)0; m-npn-2
T2 sequence: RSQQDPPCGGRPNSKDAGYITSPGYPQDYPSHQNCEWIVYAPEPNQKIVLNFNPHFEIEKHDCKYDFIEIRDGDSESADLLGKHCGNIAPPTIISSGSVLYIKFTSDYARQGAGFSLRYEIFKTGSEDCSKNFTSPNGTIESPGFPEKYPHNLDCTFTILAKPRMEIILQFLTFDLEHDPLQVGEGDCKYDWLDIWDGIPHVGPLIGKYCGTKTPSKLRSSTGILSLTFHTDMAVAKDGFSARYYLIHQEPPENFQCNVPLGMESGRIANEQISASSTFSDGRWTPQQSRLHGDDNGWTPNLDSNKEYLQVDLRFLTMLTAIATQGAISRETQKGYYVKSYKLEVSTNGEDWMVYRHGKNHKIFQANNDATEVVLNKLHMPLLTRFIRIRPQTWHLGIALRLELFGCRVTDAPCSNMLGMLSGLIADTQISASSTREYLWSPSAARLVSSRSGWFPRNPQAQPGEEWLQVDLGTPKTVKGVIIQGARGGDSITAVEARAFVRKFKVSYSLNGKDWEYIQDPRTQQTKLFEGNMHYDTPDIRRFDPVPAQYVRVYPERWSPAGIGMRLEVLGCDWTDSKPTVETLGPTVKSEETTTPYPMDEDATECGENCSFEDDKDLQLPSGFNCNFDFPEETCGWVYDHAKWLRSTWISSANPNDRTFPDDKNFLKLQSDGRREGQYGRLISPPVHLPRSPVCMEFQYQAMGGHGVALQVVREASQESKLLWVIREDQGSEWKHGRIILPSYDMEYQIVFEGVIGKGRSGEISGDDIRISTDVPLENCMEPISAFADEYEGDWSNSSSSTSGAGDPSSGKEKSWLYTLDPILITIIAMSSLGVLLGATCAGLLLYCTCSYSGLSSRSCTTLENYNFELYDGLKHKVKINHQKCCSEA

[6] = molecular target: T3, mouse neuropilin-2(a5), myc-tagged, expressed in COS-7 cells (mouse, UniProt O35375 21-931); assay: AP fusion binding to transfected COS cells
T3 construct: also called a5 isoform of neuropilin-2; SR2(a)5
T3 sequence: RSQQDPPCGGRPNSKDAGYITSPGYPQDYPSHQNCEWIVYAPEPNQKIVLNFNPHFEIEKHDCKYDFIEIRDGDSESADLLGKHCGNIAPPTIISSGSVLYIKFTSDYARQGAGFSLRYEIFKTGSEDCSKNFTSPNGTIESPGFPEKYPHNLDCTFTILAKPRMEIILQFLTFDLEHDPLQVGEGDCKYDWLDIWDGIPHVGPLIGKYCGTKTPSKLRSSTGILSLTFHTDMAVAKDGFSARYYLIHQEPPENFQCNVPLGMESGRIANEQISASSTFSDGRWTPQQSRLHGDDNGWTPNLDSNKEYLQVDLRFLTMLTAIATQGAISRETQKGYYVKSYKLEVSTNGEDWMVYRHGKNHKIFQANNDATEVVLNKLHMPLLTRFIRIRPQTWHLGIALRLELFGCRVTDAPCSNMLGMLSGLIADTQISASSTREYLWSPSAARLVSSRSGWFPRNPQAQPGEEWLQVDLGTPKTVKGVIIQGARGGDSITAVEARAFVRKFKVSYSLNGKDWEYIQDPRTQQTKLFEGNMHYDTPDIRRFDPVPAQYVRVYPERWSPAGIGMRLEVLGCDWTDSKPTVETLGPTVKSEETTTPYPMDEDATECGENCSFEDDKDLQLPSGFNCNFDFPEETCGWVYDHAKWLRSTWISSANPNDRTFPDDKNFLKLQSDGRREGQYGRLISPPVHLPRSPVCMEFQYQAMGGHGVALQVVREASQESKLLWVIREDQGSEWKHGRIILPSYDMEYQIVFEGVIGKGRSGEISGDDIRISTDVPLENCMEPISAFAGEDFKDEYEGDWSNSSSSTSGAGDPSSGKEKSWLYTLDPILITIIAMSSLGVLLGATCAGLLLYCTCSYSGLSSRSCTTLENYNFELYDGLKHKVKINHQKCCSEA

[7] = molecular target: T4, mouse neuropilin-2(a22), myc-tagged, expressed in COS-7 cells (mouse, UniProt O35375 21-931); assay: AP fusion binding to transfected COS cells
T4 construct: also called SR2(a)22
T4 sequence: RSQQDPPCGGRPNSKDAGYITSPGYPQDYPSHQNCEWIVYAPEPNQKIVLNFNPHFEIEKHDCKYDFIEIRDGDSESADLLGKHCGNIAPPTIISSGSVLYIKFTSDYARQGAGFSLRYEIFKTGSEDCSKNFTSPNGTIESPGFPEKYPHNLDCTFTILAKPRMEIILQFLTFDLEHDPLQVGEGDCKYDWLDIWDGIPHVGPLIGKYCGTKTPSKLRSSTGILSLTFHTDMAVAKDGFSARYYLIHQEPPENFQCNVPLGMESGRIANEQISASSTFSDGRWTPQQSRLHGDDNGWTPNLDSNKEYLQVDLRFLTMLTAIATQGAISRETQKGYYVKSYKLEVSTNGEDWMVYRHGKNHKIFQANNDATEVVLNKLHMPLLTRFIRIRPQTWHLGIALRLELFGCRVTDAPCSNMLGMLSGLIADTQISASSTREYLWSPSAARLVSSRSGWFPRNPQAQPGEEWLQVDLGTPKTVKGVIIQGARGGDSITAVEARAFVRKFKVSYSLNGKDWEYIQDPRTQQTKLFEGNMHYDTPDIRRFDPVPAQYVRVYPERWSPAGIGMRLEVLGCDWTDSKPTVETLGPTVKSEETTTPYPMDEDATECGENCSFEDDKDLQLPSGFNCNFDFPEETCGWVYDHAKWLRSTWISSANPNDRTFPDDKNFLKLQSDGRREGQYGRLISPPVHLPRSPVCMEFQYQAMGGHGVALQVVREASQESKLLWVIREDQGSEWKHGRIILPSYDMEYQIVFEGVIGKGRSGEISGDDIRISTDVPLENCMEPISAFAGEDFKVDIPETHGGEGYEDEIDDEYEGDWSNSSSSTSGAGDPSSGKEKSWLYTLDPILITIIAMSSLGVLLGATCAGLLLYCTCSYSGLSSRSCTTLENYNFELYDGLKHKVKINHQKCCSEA

B1 was tested, and the Kd [1] was 0.84 nM and 0.0672 µg/mL.

B2 was tested, and the Kd [2] was 0.0553 µg/mL and 0.325 nM and the Kd [3] was 0.219 µg/mL and 1.45 nM.

B3 showed a Kd [4] of 0.325 nM.

B4: no binding [5]; no binding [6]; no binding [7].
